Measured values reported in US20240018502A1.
Residue numbers refer to the chain shown, from its start. Names may count otherwise. Values belong to the binder of their own block, whether it stands above or below them.

Biological target: plasma purified human complement protein C3 (human) (UniProt P01024)
Assay: cell-based or functional assay

Chain of plasma purified human complement protein C3 (human) (P01024 23-667, chain 1 of 2): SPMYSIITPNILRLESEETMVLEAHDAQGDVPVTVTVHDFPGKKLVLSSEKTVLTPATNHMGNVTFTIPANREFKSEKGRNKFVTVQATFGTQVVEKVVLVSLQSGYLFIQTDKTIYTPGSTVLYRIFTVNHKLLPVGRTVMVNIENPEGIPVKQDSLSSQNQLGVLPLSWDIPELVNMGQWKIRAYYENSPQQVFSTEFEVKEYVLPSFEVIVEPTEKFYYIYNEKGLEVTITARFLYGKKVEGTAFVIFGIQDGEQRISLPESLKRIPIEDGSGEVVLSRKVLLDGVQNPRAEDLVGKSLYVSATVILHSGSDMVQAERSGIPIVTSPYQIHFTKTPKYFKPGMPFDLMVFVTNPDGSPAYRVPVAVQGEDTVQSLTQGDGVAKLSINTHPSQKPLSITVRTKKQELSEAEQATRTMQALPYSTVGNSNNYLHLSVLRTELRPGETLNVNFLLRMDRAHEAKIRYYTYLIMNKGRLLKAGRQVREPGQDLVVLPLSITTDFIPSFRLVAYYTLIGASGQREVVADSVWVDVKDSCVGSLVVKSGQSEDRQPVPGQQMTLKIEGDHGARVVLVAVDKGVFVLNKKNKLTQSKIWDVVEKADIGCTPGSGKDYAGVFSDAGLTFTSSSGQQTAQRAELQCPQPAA
Chain of plasma purified human complement protein C3 (human) (P01024 672-1663, chain 2 of 2): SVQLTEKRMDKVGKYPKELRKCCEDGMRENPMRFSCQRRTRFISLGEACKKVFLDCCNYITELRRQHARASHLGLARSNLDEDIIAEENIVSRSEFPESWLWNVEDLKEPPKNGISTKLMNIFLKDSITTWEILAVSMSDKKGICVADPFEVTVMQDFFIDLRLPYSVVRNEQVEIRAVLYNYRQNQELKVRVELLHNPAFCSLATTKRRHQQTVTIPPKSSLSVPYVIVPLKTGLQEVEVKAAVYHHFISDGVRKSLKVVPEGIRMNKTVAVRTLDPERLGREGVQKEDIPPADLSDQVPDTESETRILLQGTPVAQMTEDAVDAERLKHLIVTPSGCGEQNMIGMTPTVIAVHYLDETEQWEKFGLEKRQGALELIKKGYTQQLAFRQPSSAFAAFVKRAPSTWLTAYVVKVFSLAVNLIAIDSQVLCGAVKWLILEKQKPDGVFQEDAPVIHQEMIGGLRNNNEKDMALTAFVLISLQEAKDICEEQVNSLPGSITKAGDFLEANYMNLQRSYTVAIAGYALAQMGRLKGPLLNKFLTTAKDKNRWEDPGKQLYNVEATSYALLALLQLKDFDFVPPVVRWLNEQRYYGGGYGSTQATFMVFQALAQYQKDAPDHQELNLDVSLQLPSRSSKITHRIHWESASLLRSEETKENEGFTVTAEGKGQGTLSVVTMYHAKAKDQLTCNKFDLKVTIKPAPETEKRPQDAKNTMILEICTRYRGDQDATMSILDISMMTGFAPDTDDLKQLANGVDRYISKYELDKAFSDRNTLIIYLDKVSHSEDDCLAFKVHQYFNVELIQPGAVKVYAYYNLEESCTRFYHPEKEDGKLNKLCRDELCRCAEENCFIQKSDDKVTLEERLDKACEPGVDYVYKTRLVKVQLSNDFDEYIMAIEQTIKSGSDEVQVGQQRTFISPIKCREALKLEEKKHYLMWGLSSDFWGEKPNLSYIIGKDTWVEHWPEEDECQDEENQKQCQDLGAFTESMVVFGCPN

EC50 of hC3 cleavage: 126 nM
B1: MTSP-1 H40R/I41H/F97D/C122S/G151N/L153R (enzyme)
chain: VVGGTDADEGEWPWQVSLHALGQGRHCGASLISPNWLVSAAHCYIDDRGFRYSDPTQWTAFLGLHDQSQRSAPGVQERRLKRIISHPFFNDDTFDYDIALLELEKPAEYSSMVRPISLPDASHVFPAGKAIWVTGWGHTQYGGTNARILQKGEIRVINQTTCENLLPQQITPRMMCVGFLSGGVDSCQGDSGGPLSSVEADGRIFQAGVVSWGDGCAQRNKPGVYTRLPLFRDWIKENTGV

EC50 of hC3 cleavage: 23.4 nM
B2: MTSP-1 H40R/I41H/F97D/F99L/C122S/Q192G/D217K/K224A (enzyme)
chain: B1 chain with F94L, N145G, R147L, Q188G, D214K, K221A

EC50 of hC3 cleavage: 45.2 nM
B3: MTSP-1 H40R/I41H/F97D/F99L/C122S/Q175R/Q192G/D217H/K224S (enzyme)
chain: B1 chain with F94L, N145G, R147L, Q169R, Q188G, D214H, K221S

EC50 of hC3 cleavage: 110 nM
B4: MTSP-1 H40K/I41M/F99L/C122S/T150A/G151R/Q192G (enzyme)
chain: B1 chain with R25K, H26M, D92F, F94L, T144A, N145R, R147L, Q188G

EC50 of hC3 cleavage: 31.2 nM
B5: MTSP-1 H40R/I41H/F97D/F99L/C122S/Q175R/Q192G/D217E/K224R (enzyme)
chain: B1 chain with F94L, N145G, R147L, Q169R, Q188G, D214E, K221R

EC50 of hC3 cleavage: 60.4 nM
B6: MTSP-1 H40R/I41H/F97D/C122S/G133D/G151N (enzyme)
chain: B1 chain with G128D, R147L

EC50 of hC3 cleavage: 304 nM
B7: MTSP-1 H40R/I41H/K86R/F97D/K110R/C122S/K134R/G151N/K157R/K224R/K239R (enzyme)
chain: B1 chain with K81R, K105R, K129R, R147L, K151R, K221R, K236R

EC50 of hC3 cleavage: 62.4 nM
B8: MTSP-1 H40P/I41R/F99L/C122S/Q192G (enzyme)
chain: B1 chain with R25P, H26R, D92F, F94L, N145G, R147L, Q188G

EC50 of hC3 cleavage: 53.8 nM
B9: MTSP-1 I41R/F99L/C122S/Q192G (enzyme)
chain: B1 chain with R25H, H26R, D92F, F94L, N145G, R147L, Q188G

EC50 of hC3 cleavage: 1520 nM
B10: MTSP-1 H40R/I41H/F99L/C122S/G151K/Q192G (enzyme)
chain: B1 chain with D92F, F94L, N145K, R147L, Q188G

EC50 of hC3 cleavage: 93.1 nM
B11: MTSP-1 H40R/I41H/F97D/C122S/Q175R/Q192G/D217I/K224Q (enzyme)
chain: B1 chain with N145G, R147L, Q169R, Q188G, D214I, K221Q

EC50 of hC3 cleavage: 19.3 nM
B12: MTSP-1 H40R/I41H/F97D/F99L/C122S/Q192G/D217I/K224S (enzyme)
chain: B1 chain with F94L, N145G, R147L, Q188G, D214I, K221S

EC50 of hC3 cleavage: 17.3 nM
B13: MTSP-1 K86R/K110R/C122S/K134R/K157R/K224R/K239R (enzyme)
chain: VVGGTDADEGEWPWQVSLHALGQGHICGASLISPNWLVSAAHCYIDDRGFRYSDPTQWTAFLGLHDQSQRSAPGVQERRLRRIISHPFFNDFTFDYDIALLELERPAEYSSMVRPISLPDASHVFPAGRAIWVTGWGHTQYGGTGALILQRGEIRVINQTTCENLLPQQITPRMMCVGFLSGGVDSCQGDSGGPLSSVEADGRIFQAGVVSWGDGCAQRNRPGVYTRLPLFRDWIRENTGV

EC50 of hC3 cleavage: 126 nM
B14: MTSP-1 I41R/ins97aE/F97T/T98G/F99L/C122S/G151E/Q175L/Q192E (enzyme)
chain: VVGGTDADEGEWPWQVSLHALGQGHRCGASLISPNWLVSAAHCYIDDRGFRYSDPTQWTAFLGLHDQSQRSAPGVQERRLKRIISHPFFNDTEGLDYDIALLELEKPAEYSSMVRPISLPDASHVFPAGKAIWVTGWGHTQYGGTEALILQKGEIRVINQTTCENLLPQLITPRMMCVGFLSGGVDSCEGDSGGPLSSVEADGRIFQAGVVSWGDGCAQRNKPGVYTRLPLFRDWIKENTGV

EC50 of hC3 cleavage: 253 nM
B15: MTSP-1 K86R/F97T/ins97aE/T98G/F99L/K110R/C122S/K134R/K157R/Q175L/Q192E/K224R/K239R (enzyme)
chain: B14 chain with R26I, K81R, K106R, K130R, E146G, K152R, K222R, K237R
